Measurements from the RNAGym collection of RNA variant scans (doi:10.7554/elife.80360).

B1: Twister Ribozyme (parent)
chain: AACACUGCCAAUGCCGGUCCCAAGCCCGGAUAAAAGUGGAGGGGGCGG

Variants of: B1
Assay: self-cleavage, relative activity (ratio to wild type); higher = more cleavage; co-transcriptional

First: AACGCUGCCAAUGCCGGUCCCAAGCCCGGAUAAAAGUGGAGAGGGCGG [A4G G42A]
Second: AACGCUGCCAAUGCCGGUCCCAAGCCCGGAUAAAAGUGGAGUGGGCGG [A4G G42U]
The self-cleavage of the first is higher: 0.289 for the first, 0.195 for the second.

Compared with AACUCUGCCAAUGCAGGUCCCAAGCCCGGAUAAAAGUGGAGGGGGCGG [A4U C15A], AACUCUGCCAAUGCCGGUCCCAAGCCCGGAUAAAGGUGGAGGGGGCGG [A4U A35G] is higher in self-cleavage: 0.0639 for the first, 0.0949 for the second.

Going from AACCCUGCCAAUGCCGGCCCCAAGCCCGGAUAAAAGUGGAGGGGGCGG [A4C U18C] to AACCCUGCCAAUGCCGGGCCCAAGCCCGGAUAAAAGUGGAGGGGGCGG [A4C U18G], the self-cleavage rises from 0.0605 to 0.111.

Compared with AACCCUGCCAAUGCCGGACCCAAGCCCGGAUAAAAGUGGAGGGGGCGG [A4C U18A], AACCCUGCCAAUGCCGGUCCCAAGCCCGGAUAAAAGUGCAGGGGGCGG [A4C G39C] is higher in self-cleavage: 0.0406 for the first, 0.0869 for the second.

First: AACCCUGCCAAUGCCGGUCCCAAGCCCGGAUAAAAGUGUAGGGGGCGG [A4C G39U]
Second: AACUCUGCCAAUGCCGGUACCAAGCCCGGAUAAAAGUGGAGGGGGCGG [A4U C19A]
The self-cleavage of the first is higher: 0.0723 for the first, 0.0659 for the second.

First: AACCCUGCCAAUGCCGGUCCCAAGCCCGGAUAAAAGUGGAGGGGGCGC [A4C G48C]
Second: AACCCUGCCAAUGCCGGUCCCAAGCCCGGAUAAAAGUGGAGGGGGCGA [A4C G48A]
The self-cleavage of the first is higher: 0.31 for the first, 0.134 for the second.

Compared with AACGCUGCCAAUGCCGGUCCCAAGCCCCGAUAAAAGUGGAGGGGGCGG [A4G G28C], AACCCUGCCAACGCCGGUCCCAAGCCCGGAUAAAAGUGGAGGGGGCGG [A4C U12C] is lower in self-cleavage: 0.529 for the first, 0.228 for the second.

First: AACUCUGCCAAUGCCGGUCCCAAGCCCGGAUAAAAGUGGGGGGGGCGG [A4U A40G]
Second: AACCCUGCCAAUGCCGGUCCCAAGCCCGGAUAAAAGUGGAGGCGGCGG [A4C G43C]
The self-cleavage of the first is lower: 0.0581 for the first, 0.0981 for the second.

Compared with AACUCUGCCAAUGCCGGUCCCAAGGCCGGAUAAAAGUGGAGGGGGCGG [A4U C25G], AACUCUGCCAAUGCCGGUCCCAAGUCCGGAUAAAAGUGGAGGGGGCGG [A4U C25U] is lower in self-cleavage: 0.0782 for the first, 0.0507 for the second.

First: AACCCUGCCAAUGCCGGUCCCAAGCCCGGAUAAAAGUGGAGGGGGCUG [A4C G47U]
Second: AACGCUGCCAAUGCCGGUCCUAAGCCCGGAUAAAAGUGGAGGGGGCGG [A4G C21U]
The self-cleavage of the first is higher: 0.121 for the first, 0.118 for the second.

Going from AACGCUGCCAUUGCCGGUCCCAAGCCCGGAUAAAAGUGGAGGGGGCGG [A4G A11U] to AACGCUGCCACUGCCGGUCCCAAGCCCGGAUAAAAGUGGAGGGGGCGG [A4G A11C], the self-cleavage falls from 0.996 to 0.663.

Going from AACGCUGCCAAUGCCGGUCCCAAGCCCGGCUAAAAGUGGAGGGGGCGG [A4G A30C] to AACGCUGCCAAUGCCGGUCCCAAGCCCGGUUAAAAGUGGAGGGGGCGG [A4G A30U], the self-cleavage rises from 0.736 to 0.762.

First: AACGCUGCCAAUGCCGGUCCCAAGCCCGGAUAAAAGUGGAGGGGGUGG [A4G C46U]
Second: AACGCUGCCAAUGCCGGUCCCAAGCCCGGAUAAAAGUGGAGGGGGGGG [A4G C46G]
The self-cleavage of the first is lower: 0.775 for the first, 1.15 for the second.

Compared with AACGCUGACAAUGCCGGUCCCAAGCCCGGAUAAAAGUGGAGGGGGCGG [A4G C8A], AACGCUGUCAAUGCCGGUCCCAAGCCCGGAUAAAAGUGGAGGGGGCGG [A4G C8U] is higher in self-cleavage: 0.524 for the first, 0.953 for the second.

Going from AACGCUGCCUAUGCCGGUCCCAAGCCCGGAUAAAAGUGGAGGGGGCGG [A4G A10U] to AACUCUGCCAAUGCCGGUCUCAAGCCCGGAUAAAAGUGGAGGGGGCGG [A4U C20U], the self-cleavage falls from 1.04 to 0.0245.

Going from AACUCUGCCAAUGCCGGUCGCAAGCCCGGAUAAAAGUGGAGGGGGCGG [A4U C20G] to AACUCUGCCAGUGCCGGUCCCAAGCCCGGAUAAAAGUGGAGGGGGCGG [A4U A11G], the self-cleavage rises from 0.0603 to 0.184.

Compared with AACUCUGCCACUGCCGGUCCCAAGCCCGGAUAAAAGUGGAGGGGGCGG [A4U A11C], AACUCUGCCAUUGCCGGUCCCAAGCCCGGAUAAAAGUGGAGGGGGCGG [A4U A11U] is higher in self-cleavage: 0.0933 for the first, 0.193 for the second.

Compared with AACGCUGCCAAUGCCGGUCCCAAGCCCGGAUAAAAGUGGAGGGGGCGC [A4G G48C], AACGCUGCCAAUGCCGGUCCCAAGCCCGGAUAAAAGUGGAGGGGGCGA [A4G G48A] is lower in self-cleavage: 1.18 for the first, 0.955 for the second.

First: AACCCUGCCAAUGCCGGUCCCAAGCCCGGAUAAAAGUAGAGGGGGCGG [A4C G38A]
Second: AACCCUGCCAAUGCCGGUCCCAAGCCCGGAUAAAAGUCGAGGGGGCGG [A4C G38C]
The self-cleavage of the first is lower: 0.142 for the first, 0.61 for the second.

Going from AACCCUGCCAAUGCCGGUCCCAAGCCCGGAUAAAAGUUGAGGGGGCGG [A4C G38U] to AACUUUGCCAAUGCCGGUCCCAAGCCCGGAUAAAAGUGGAGGGGGCGG [A4U C5U], the self-cleavage falls from 0.591 to 0.136.

First: AACUGUGCCAAUGCCGGUCCCAAGCCCGGAUAAAAGUGGAGGGGGCGG [A4U C5G]
Second: AACUCUGCCAAUGCCGGUCCCAAGCCCGGAUAAGAGUGGAGGGGGCGG [A4U A34G]
The self-cleavage of the first is lower: 0.0771 for the first, 0.0772 for the second.

First: AACGCUGCCAAUGCCGGUCCCAAGCCCGGAUAAAAGUGUAGGGGGCGG [A4G G39U]
Second: AACGCUGCCAAUGCCGGUCCCAAGCCCGGAUAAAAGUGCAGGGGGCGG [A4G G39C]
The self-cleavage of the first is higher: 0.153 for the first, 0.115 for the second.

Going from AACUCUGCCAAUGCCGGUCCCAAGCCCGGAUACAAGUGGAGGGGGCGG [A4U A33C] to AACUCUGCCAAUGCCGGUCCCAAGCCCGGAUAUAAGUGGAGGGGGCGG [A4U A33U], the self-cleavage falls from 0.0899 to 0.0597.

Compared with AACGCUGCCAACGCCGGUCCCAAGCCCGGAUAAAAGUGGAGGGGGCGG [A4G U12C], AACGCUGCCAAUGCCGGUCCCAAACCCGGAUAAAAGUGGAGGGGGCGG [A4G G24A] is lower in self-cleavage: 0.811 for the first, 0.0846 for the second.

Compared with AACGCUGCCAAUGCCGGUCCCAACCCCGGAUAAAAGUGGAGGGGGCGG [A4G G24C], AACCCUGCCAAUGCCGGUCCCAAGCCCGGAUAAAAGUGGAGAGGGCGG [A4C G42A] is higher in self-cleavage: 0.0502 for the first, 0.0686 for the second.

First: AACGCUGCCAAUGCCGGUCCCAAGCCCGGAUAAUAGUGGAGGGGGCGG [A4G A34U]
Second: AACGCUGCCAAUGCCGGUCCCAAGCCCGGAUAACAGUGGAGGGGGCGG [A4G A34C]
The self-cleavage of the first is higher: 0.499 for the first, 0.128 for the second.

Compared with AACGCUGCCAAUGCCGGUCCCAAGCCCGGAUAAAAAUGGAGGGGGCGG [A4G G36A], AACUCUGCCAAUGCCGGUCCCAUGCCCGGAUAAAAGUGGAGGGGGCGG [A4U A23U] is lower in self-cleavage: 0.385 for the first, 0.0527 for the second.
